Experimental findings from patent publication US20230382992A1 (Bristol-Myers Squibb, published 2023) are described below.

The target of this assay is CD64 (UniProt P12314 16-288, limits assumed). The assay can be described thus: assay not described.
CD64, sequence (P12314 16-288 limits assumed): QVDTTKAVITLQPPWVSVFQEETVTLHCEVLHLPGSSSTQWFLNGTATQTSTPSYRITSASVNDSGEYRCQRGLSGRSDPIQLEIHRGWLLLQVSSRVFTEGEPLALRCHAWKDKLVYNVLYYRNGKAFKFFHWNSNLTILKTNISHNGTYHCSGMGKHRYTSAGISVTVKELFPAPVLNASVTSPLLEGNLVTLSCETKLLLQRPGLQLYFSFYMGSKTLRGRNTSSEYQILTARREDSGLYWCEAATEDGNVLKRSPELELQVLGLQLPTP

B1: TIM3.18.IgG1.3 (antibody)
heavy: QLQLQESGPGLVKPSETLSLTCTVSGGSISSRSYYWGWIRQPPGKGLEWIGSIYYSGFTYYQPSLKSRVTISVDTSKNQFSLKLSSVTAADTAVYYCATGGPYGDYAHWFEPWGQGTLVTVSSASTKGPSVFPLAPSSKSTSGGTAALGCLVKDYFPEPVTVSWNSGALTSGVHTFPAVLQSSGLYSLSSVVTVPSSSLGTQTYICNVNHKPSNTKVDKRVEPKSCDKTHTCPPCPAPEAEGAPSVFLFPPKPKDTLMISRTPEVTCVVVDVSHEDPEVKFNWYVDGVEVHNAKTKPREEQYNSTYRVVSVLTVLHQDWLNGKEYKCKVSNKALPAPIEKTISKAKGQPREPQVYTLPPSREEMTKNQVSLTCLVKGFYPSDIAVEWESNGQPENNYKTTPPVLDSDGSFFLYSKLTVDKSRWQQGNVFSCSVMHEALHNHYTQKSLSLSPGK
light: not shown
notes: Effectorless IgG1.3f (L234A, L235E, G237A); It was radioiodinated for the Scatchard assays; also called TIM3.18 (13A3) IgG1.3f (N60Q/D101E)
In the case of B1, the binding result is “no binding”.
